According to patent publication EP4793287A1, “TUMOR MICROENVIRONMENT SPECIFICALLY ACTIVATED CD47 ANTIBODY” (Affinity (Shanghai) Biopharmaceutical Co., Ltd., priority 2023, dated 2025):

Tests used:
[1] = tested on: Human Burkitt's lymphoma RAJI cells; assay: In vivo efficacy, subcutaneous RAJI transplanted tumor model; set-up: species or system NOD-SCID mice; conditions: for T/C ratio / TGI inhibition rate: after 31 days of treatment
Protocol: (§1) Human Burkitt's lymphoma RAJI cells were subcutaneously transplanted into NOD-SCID mice to establish an in vivo model. RAJI cells were cultured according to standard culture conditions and were collected during the exponential growth phase for counting. Each mouse was inoculated on the right flank with 1×10^7 human Burkitt's lymphoma RAJI cells (suspended in 0.1 ml of basal medium). After inoculation, when the tumors grew to 80-114 mm^3 (7 days post-tumor implantation), the mice were randomly grouped based on body weight and tumor volume. The experimental groups were divided as follows:
(§2) Treatment was started on the day of grouping. Mice were weighed, and tumor volumes were measured twice a week. Tumor volume was calculated using the formula: tumor volume = 1/2 × length × width × width (mm^3). The tumor growth inhibition rate TGI (%) was calculated as [1 - (Tt - T0) / (Ct - C0)] × 100%. The tumor inhibition rate T/C (%) was calculated as (Tt/T0) / (Ct/C0) × 100%. T0 represents the tumor volume of the test antibody group at the time of grouping; Tt represents the tumor volume of the test antibody group at each measurement; C0 represents the average tumor volume of the PBS group at the time of grouping; Ct represents the average tumor volume of the PBS group at each measurement.

Raji cells = assay: FACS binding of CD47 antibody to Raji cells
Protocol: The required cell line, Raji (cultured in RPMI-1640 (ATCC Modification, Gibco, Cat# A10491-01) + 10% FBS (BI, Cat# 04-001-1A) + 1× P/S), was expanded to the logarithmic phase. Cells were collected and pipetted to create a single-cell suspension, followed by centrifugation and removal of the supernatant. The cells were resuspended in FACS buffer (PBS + 2% FBS) and counted, and the cell density was adjusted to 2×10^6/ml. 100 µl/well of this suspension was added to a 96-well plate (Corning, Cat# 3799). After centrifugation and removal of the supernatant, 100 µl/well of the antibody sample to be tested (initial concentration of 100 nM, 5-fold gradient dilutions) was added, mixed with the cells, and incubated at 4 °C for 1 hour. Cells were washed by centrifugation with FACS buffer for three times, then added with 100 µl/well of Goat anti-Human IgG Fc Secondary Antibody, PE (eBioscience™, Invitrogen, Cat# 12-4998-82, 1:200 dilution) and incubated at 4 °C for 1 hour. After three washes with FACS buffer by centrifugation, the cells were resuspended in 200 µl/well of FACS buffer and analyzed using FACS (BECKMAN COULTER, CytoFLEX). Data were fitted and the results were analyzed using software (GraphPad Prism 8).

[2] = tested on: Human small cell lung cancer SHP-77 cells; assay: In vivo efficacy, subcutaneous SHP-77 tumor model (Example 11); set-up: species or system CB17-SCID mice; conditions: for T/C ratio / TGI inhibition rate: after 38 days of treatment
Protocol: as §1, with “small cell lung cancer SHP-77” for “Burkitt's lymphoma RAJI”, “CB17-SCID” for “NOD-SCID”, “SHP-77” for “RAJI”, “2.5×10^6” for “1×10^7”, “60-103” for “80-114”, “(5” for “(7”
as §2

B1: CD47 TMEAbody: CD47 TMEAbody conjugated with PEG of approximately 20K molecular weight (i.e., PEG20K) (conjugate)
VH: QQQLEESGGGLVKPEGSLTLTCTASGFSFSSGYDMCWVRQAPGRGLEWIACIYTRSSGGTCYASWAKGRFTISKTSSTVDLRMTSLTAADTATYFCAGGRSSYRLNLWGQGALVTVSS
VL: DVVMTQTPSPVEAAVGGTVTIKCQASQSISNELSWYQQKPGQPPKLLIYRASTLESGVSSRFKGSGSGTEFTLTISDLECADAATYYCQSTFYGDYGNAFGGGTEVVVK
B1 was tested, and the “Tumor Volume” value ([1]; 0.3 mg/kg, D0) was 94.56 mm^3, the “Tumor Volume” value ([1]; 0.3 mg/kg, D3) was 123.83 mm^3 and the “Tumor Volume” value ([1]; 0.3 mg/kg, D7) was 147.44 mm^3. The “Tumor Volume” value ([1]; 0.3 mg/kg, D10) was 232.04 mm^3, the “Tumor Volume” value ([1]; 0.3 mg/kg, D14) was 358.82 mm^3 and the “Tumor Volume” value ([1]; 0.3 mg/kg, D17) was 511.34 mm^3. The “Tumor Volume” value ([1]; 0.3 mg/kg, D21) was 849.95 mm^3, the “Tumor Volume” value ([1]; 0.3 mg/kg, D24) was 1156.48 mm^3 and the “Tumor Volume” value ([1]; 0.3 mg/kg, D28) was 1887.63 mm^3. The “Tumor Volume” value ([1]; 0.3 mg/kg, D31) was 2532.90 mm^3, the T/C ratio ([1]; 0.3 mg/kg) was 93.73% and the TGI inhibition rate ([1]; 0.3 mg/kg) was 6.45%. For the same molecule, the “Tumor Volume” value ([1]; 1 mg/kg, D0) was 94.25 mm^3, the “Tumor Volume” value ([1]; 1 mg/kg, D3) was 100.17 mm^3 and the “Tumor Volume” value ([1]; 1 mg/kg, D7) was 116.36 mm^3. For the same molecule, the “Tumor Volume” value ([1]; 1 mg/kg, D10) was 162.08 mm^3, the “Tumor Volume” value ([1]; 1 mg/kg, D14) was 214.12 mm^3 and the “Tumor Volume” value ([1]; 1 mg/kg, D17) was 307.27 mm^3. The “Tumor Volume” value ([1]; 1 mg/kg, D21) was 384.91 mm^3, the “Tumor Volume” value ([1]; 1 mg/kg, D24) was 485.51 mm^3 and the “Tumor Volume” value ([1]; 1 mg/kg, D28) was 679.76 mm^3. For the same molecule, the “Tumor Volume” value ([1]; 1 mg/kg, D31) was 890.40 mm^3, the T/C ratio ([1]; 1 mg/kg) was 33.06% and the TGI inhibition rate ([1]; 1 mg/kg) was 69.46%. The “Tumor Volume” value ([1]; 3 mg/kg, D0) was 93.15 mm^3, the “Tumor Volume” value ([1]; 3 mg/kg, D3) was 91.90 mm^3 and the “Tumor Volume” value ([1]; 3 mg/kg, D7) was 81.07 mm^3. For the same molecule, the “Tumor Volume” value ([1]; 3 mg/kg, D10) was 87.74 mm^3, the “Tumor Volume” value ([1]; 3 mg/kg, D14) was 92.16 mm^3 and the “Tumor Volume” value ([1]; 3 mg/kg, D17) was 91.91 mm^3. For the same molecule, the “Tumor Volume” value ([1]; 3 mg/kg, D21) was 129.68 mm^3, the “Tumor Volume” value ([1]; 3 mg/kg, D24) was 117.69 mm^3 and the “Tumor Volume” value ([1]; 3 mg/kg, D28) was 125.24 mm^3. The “Tumor Volume” value ([1]; 3 mg/kg, D31) was 120.05 mm^3, the T/C ratio ([1]; 3 mg/kg) was 4.51% and the TGI inhibition rate ([1]; 3 mg/kg) was 98.97%. For the same molecule, the tumor growth inhibition ([1]; 0.3-3 mg/kg) was “significant tumor growth inhibition”, the “changes in body weight” value ([1]; during the treatment period) was “No significant changes in body weight” and the “binding to Raji cells lower compared to 70H1” value (Raji cells) was “approximately 60 fold”. The “Tumor Volume” value ([2]; 0.3 mg/kg, D0) was 79.15 mm^3, the “Tumor Volume” value ([2]; 0.3 mg/kg, D3) was 63.51 mm^3 and the “Tumor Volume” value ([2]; 0.3 mg/kg, D7) was 44.29 mm^3. For the same molecule, the “Tumor Volume” value ([2]; 0.3 mg/kg, D10) was 42.63 mm^3, the “Tumor Volume” value ([2]; 0.3 mg/kg, D14) was 42.49 mm^3 and the “Tumor Volume” value ([2]; 0.3 mg/kg, D17) was 44.81 mm^3. The “Tumor Volume” value ([2]; 0.3 mg/kg, D21) was 74.08 mm^3, the “Tumor Volume” value ([2]; 0.3 mg/kg, D24) was 116.17 mm^3 and the “Tumor Volume” value ([2]; 0.3 mg/kg, D28) was 142.04 mm^3. The “Tumor Volume” value ([2]; 0.3 mg/kg, D31) was 194.29 mm^3, the “Tumor Volume” value ([2]; 0.3 mg/kg, D35) was 272.39 mm^3 and the “Tumor Volume” value ([2]; 0.3 mg/kg, D38) was 373.67 mm^3. The T/C ratio ([2]; 0.3 mg/kg) was 29.52%, the TGI inhibition rate ([2]; 0.3 mg/kg) was 75.38% and the “Tumor Volume” value ([2]; 1 mg/kg, D0) was 79.75 mm^3. For the same molecule, the “Tumor Volume” value ([2]; 1 mg/kg, D3) was 69.70 mm^3, the “Tumor Volume” value ([2]; 1 mg/kg, D7) was 47.94 mm^3 and the “Tumor Volume” value ([2]; 1 mg/kg, D10) was 36.61 mm^3. For the same molecule, the “Tumor Volume” value ([2]; 1 mg/kg, D14) was 32.95 mm^3, the “Tumor Volume” value ([2]; 1 mg/kg, D17) was 20.93 mm^3 and the “Tumor Volume” value ([2]; 1 mg/kg, D21) was 19.98 mm^3. For the same molecule, the “Tumor Volume” value ([2]; 1 mg/kg, D24) was 27.75 mm^3, the “Tumor Volume” value ([2]; 1 mg/kg, D28) was 17.69 mm^3 and the “Tumor Volume” value ([2]; 1 mg/kg, D31) was 21.42 mm^3. For the same molecule, the “Tumor Volume” value ([2]; 1 mg/kg, D35) was 15.37 mm^3, the “Tumor Volume” value ([2]; 1 mg/kg, D38) was 14.44 mm^3 and the T/C ratio ([2]; 1 mg/kg) was 1.13%. For the same molecule, the TGI inhibition rate ([2]; 1 mg/kg) was 105.46%, the “Tumor Volume” value ([2]; 3 mg/kg, D0) was 79.00 mm^3 and the “Tumor Volume” value ([2]; 3 mg/kg, D3) was 65.86 mm^3. The “Tumor Volume” value ([2]; 3 mg/kg, D7) was 44.80 mm^3, the “Tumor Volume” value ([2]; 3 mg/kg, D10) was 33.94 mm^3 and the “Tumor Volume” value ([2]; 3 mg/kg, D14) was 27.48 mm^3. The “Tumor Volume” value ([2]; 3 mg/kg, D17) was 24.62 mm^3, the “Tumor Volume” value ([2]; 3 mg/kg, D21) was 9.14 mm^3 and the “Tumor Volume” value ([2]; 3 mg/kg, D24) was 13.52 mm^3. For the same molecule, the “Tumor Volume” value ([2]; 3 mg/kg, D28) was 10.79 mm^3, the “Tumor Volume” value ([2]; 3 mg/kg, D31) was 17.13 mm^3 and the “Tumor Volume” value ([2]; 3 mg/kg, D35) was 14.44 mm^3. The “Tumor Volume” value ([2]; 3 mg/kg, D38) was 12.85 mm^3, the T/C ratio ([2]; 3 mg/kg) was 1.02% and the TGI inhibition rate ([2]; 3 mg/kg) was 105.53%. For the same molecule, the tumor growth inhibition ([2]; 0.3-3 mg/kg) was “significant tumor growth inhibition” and the “changes in body weight” value ([2]; during the treatment period) was “No significant changes in body weight”.
